From US20150087812A1 (Janssen / Centocor, published 2015)

What was measured:
[1] = target: T1, recombinant human ATX beta isoform with N-terminal purification tag (human, UniProt Q13822 49-863); assay: Fab-His ELISA
Method: (§1) Fabs were captured on black MaxiSorp plates (Nunc, Cat. No. 437111) coated with 1 μg/ml sheep anti-human Fd (CH1) antibody (The Binding Site, Cat. No. PC075). Plates were washed and biotinylated human ATX was added to the captured Fabs at 5 nM. Incubation was carried out for 1 hour at room temperature with gentle shaking. Plates were washed, SA-HRP (Invitrogen, Cat. No. 43-4323) was added and chemiluminescent detection carried out.
(§2) Clones with binding above background were sequenced and unique clones identified. […] These clones were identified with binding signal to human ATX at least 6-fold above the background. Table 3 lists the identifier for VH and VL (Peptide ID) and the combination of both (Fab ID) sorted by the Fab ELISA binding data.

[2] = target: T1, recombinant human ATX beta isoform with …; assay: ELISA, Fab-His captured by anti-Fd, 5 nM biotinylated human ATX beta
Method: as §1, §2

Binder | fold above background [1] | Fab Binding [2]
Fab F123 (VH H120, VL PH9L4) (Fab, V domains shown, Soluble Fab-His) VH: QVQLVQSGAEVKKPGSSVKVSCKASGGTFSSYAISWVRQAPGQGLEWMGGIIPIFGTANYAQKFQGRVTITADESTSTAYMELSSLRSEDTAVYYCARHDVNSLWAYFDYWGQGTLVTVSS VL: not shown | ≥ 6 fold | 1.4e+06 relative chemiluminescence units
Fab F33 (VH H24, VL L35) (Fab, V domains shown, Soluble Fab-His; converted to mAb B15; the Fab's H24 may differ in FR1) VH: not shown VL: DIQMTQSPSSLSASVGDRVTITCRASQSIHNWLNWYQQKPGKAPKLLIYAASSLQSGVPSRFSGSGSGTDFTLTISSLQPEDFATYYCQQSYSTPLTFGQGTKVEIK | ≥ 6 fold | 1.1e+06 relative chemiluminescence units
Fab F16 (VH H10, VL L13) (Fab, V domains shown, Soluble Fab-His; converted to mAb B2) VH: EVQLVQSGAEVKKPGESLKISCKGSGYSFTSYWIGWVRQMPGKGLEWMGIIYPGDSDTRYSPSFQGQVTISADKSISTAYLQWSSLKASDTAMYYCARGLADFWYFDYWGQGTLVTVSS VL: DIQMTQSPSSLSASVGDRVTITCRASQSIDVWLNWYQQKPGKAPKLLIYAASSLQSGVPSRFSGSGSGTDFTLTISSLQPEDFATYYCQQSYSTPLTFGQGTKVEIK | ≥ 6 fold | 3.9e+06 relative chemiluminescence units
Fab F54 (VH H44, VL IFWL195) (Fab, V domains shown, Soluble Fab-His; converted to mAb B17; the Fab's H44 may differ in FR1) VH: not shown VL: DIQMTQSPSSLSASVGDRVTITCRASQSIANWLNWYQQKPGKAPKLLIYAASSLQSGVPSRFSGSGSGTDFTLTISSLQPEDFATYYCQQSYSTPLTFGQGTKVEIK | ≥ 6 fold | 980000 relative chemiluminescence units
Fab F43 (VH H2, VL L44) (Fab, V domains shown, Soluble Fab-His) VH: QVQLVQSGAEVKKPGSSVKVSCKASGGTFSSYAISWVRQAPGQGLEWMGGIIPIFGTANYAQKFQGRVTITADESTSTAYMELSSLRSEDTAVYYCARDDLPLGRLDYWGQGTLVTVSS VL: EIVLTQSPATLSLSPGERATLSCRASQSVAKFLAWYQQKPGQAPRLLIYKASNRATGIPARFSGSGSGTDFTLTISSLEPEDFAVYYCQQYSTWPFTFGQGTKVEIK | ≥ 6 fold | 980000 relative chemiluminescence units
Fab F126 (VH H123, VL L110) (Fab, V domains shown, Soluble Fab-His; converted to mAb B12) VH: QVQLVQSGAEVKKPGSSVKVSCKASGGTFSSYAISWVRQAPGQGLEWMGGIIPIFGTANYAQKFQGRVTITADESTSTAYMELSSLRSEDTAVYYCARDRYYFTVLDYWGQGTLVTVSS VL: EIVLTQSPGTLSLSPGERATLSCRASQSVSSSYLAWYQQKPGQAPRLLIYGASSRATGIPDRFSGSGSGTDFTLTISRLEPEDFAVYYCQQATAFPLTFGQGTKVEIK | ≥ 6 fold | 2.4e+06 relative chemiluminescence units
Fab F63 (VH H55, VL L57) (Fab, V domains shown, Soluble Fab-His) VH: QVQLVQSGAEVKKPGSSVKVSCKASGGTFSSYGISWVRQAPGQGLEWMGGIIPIFGTANYAQKFQGRVTITADESTSTAYMELSSLRSEDTAVYYCARRDGNYLHVDHFDYWGQGTLVTVSS VL: EIVLTQSPATLSLSPGERATLSCRASQSVASALAWYQQKPGQAPRLLIYKASNRATGIPARFSGSGSGTDFTLTISSLEPEDFAVYYCQQGGNWPWTFGQGTKVEIK | ≥ 6 fold | 980000 relative chemiluminescence units
Fab F5 (VH H4, VL L4) (Fab, V domains shown, Soluble Fab-His; converted to mAb B1) VH: EVQLVQSGAEVKKPGESLKISCKGSGYSFTSYWIGWVRQMPGKGLEWMGIIYPGDSDTRYSPSFQGQVTISADKSISTAYLQWSSLKASDTAMYYCARNWSEALYVVFDYWGQGTLVTVSS VL: EIVLTQSPATLSLSPGERATLSCRASQSVANFLAWYQQKPGQAPRLLIYYASNRATGIPARFSGSGSGTDFTLTISSLEPEDFAVYYCQQYFSAPFTFGQGTKVEIK | ≥ 6 fold | 3.8e+06 relative chemiluminescence units
Fab F50 (VH H25, VL L46) (Fab, V domains shown, Soluble Fab-His) VH: QVQLVQSGAEVKKPGSSVKVSCKASGGTFSSYAISWVRQAPGQGLEWMGGIIPIFGTANYAQKFQGRVTITADESTSTAYMELSSLRSEDTAVYYCARDDLALGRLDYWGQGTLVTVSS VL: EIVLTQSPATLSLSPGERATLSCRASQSVSSFLAWYQQKPGQAPRLLIYTASNRATGIPARFSGSGSGTDFTLTISSLEPEDFAVYYCQQSHRAPWTFGQGTKVEIK | ≥ 6 fold | 1.9e+06 relative chemiluminescence units
Fab F68 (VH H62, VL L62) (Fab, V domains shown, Soluble Fab-His) VH: QVQLVQSGAEVKKPGSSVKVSCKASGGTFSSYGISWVRQAPGQGLEWMGGIIPIFGTTNYAQKFQGRVTITADESTSTAYMELSSLRSEDTAVYYCARDWWVTDILDYWGQGTLVTVSS VL: EIVLTQSPGTLSLSPGERATLSCRASQSVSSSYLAWYQQKPGQAPRLLIYGASSRATGIPDRFSGSGSGTDFTLTISRLEPEDFAVYYCQQSNTNPLTFGQGTKVEIK | ≥ 6 fold | 1.8e+06 relative chemiluminescence units
Fab F45 (VH H2, VL L34) (Fab, V domains shown, Soluble Fab-His) VH: QVQLVQSGAEVKKPGSSVKVSCKASGGTFSSYAISWVRQAPGQGLEWMGGIIPIFGTANYAQKFQGRVTITADESTSTAYMELSSLRSEDTAVYYCARDDLPLGRLDYWGQGTLVTVSS VL: EIVLTQSPATLSLSPGERATLSCRASQSVSSWLAWYQQKPGQAPRLLIYYASNRATGIPARFSGSGSGTDFTLTISSLEPEDFAVYYCQQFKGWPFTFGQGTKVEIK | ≥ 6 fold | 1.2e+06 relative chemiluminescence units
Fab F71 (VH H2, VL L65) (Fab, V domains shown, Soluble Fab-His) VH: QVQLVQSGAEVKKPGSSVKVSCKASGGTFSSYAISWVRQAPGQGLEWMGGIIPIFGTANYAQKFQGRVTITADESTSTAYMELSSLRSEDTAVYYCARDDLPLGRLDYWGQGTLVTVSS VL: EIVLTQSPATLSLSPGERATLSCRASQSVSDYLAWYQQKPGQAPRLLIYDASNRATGIPARFSGSGSGTDFTLTISSLEPEDFAVYYCQQGSDAPLTFGQGTKVEIK | ≥ 6 fold | 1.7e+06 relative chemiluminescence units

Second part, the binder after the results:

fold above background [1] | Fab Binding [2] | Binder
≥ 6 fold | 970000 relative chemiluminescence units | Fab F105 (VH H97, VL L93) (Fab, V domains shown, Soluble Fab-His) VH: QVQLVQSGAEVKKPGSSVKVSCKASGGTFSSYGISWVRQAPGQGLEWMGGIIPIFGTANYAQKFQGRVTITADESTSTAYMELSSLRSEDTAVYYCARGDDNEVIYHLDYWGQGTLVTVSS VL: EIVLTQSPGTLSLSPGERATLSCRASQSVAKSDLAWYQQKPGQAPRLLIYTASSRATGIPDRFSGSGSGTDFTLTISRLEPEDFAVYYCQQDYGYPLTFGQGTKVEIK
≥ 6 fold | 1.3e+06 relative chemiluminescence units | Fab F142 (VH H146, VL L121) (Fab, V domains shown, Soluble Fab-His) VH: QVQLVQSGAEVKKPGSSVKVSCKASGGTFSSYAISWVRQAPGQGLEWMGGIIPIFGTANYAQKFQGRVTITADESTSTAYMELSSLRSEDTAVYYCARGDYNAIYYALDYWGQGTLVTVSS VL: DIQMTQSPSSLSASVGDRVTITCRASQSISSYLNWYQQKPGKAPKLLIYAASSLQSGVPSRFSGSGSGTDFTLTISSLQPEDFATYYCQQPISFPYTFGQGTKVEIK
≥ 6 fold | 1.9e+06 relative chemiluminescence units | Fab F78 (VH H73, VL L73) (Fab, V domains shown, Soluble Fab-His) VH: QVQLVQSGAEVKKPGSSVKVSCKASGGTFSSYAISWVRQAPGQGLEWMGGIIPIFGTANYAQKFQGRVTITADESTSTAYMELSSLRSEDTAVYYCARGTFTYDFLDYWGQGTLVTVSS VL: EIVLTQSPGTLSLSPGERATLSCRASQSVSSSYLAWYQQKPGQAPRLLIYGASSRATGIPDRFSGSGSGTDFTLTISRLEPEDFAVYYCQQSSRFPWTFGQGTKVEIK
≥ 6 fold | 1.3e+06 relative chemiluminescence units | Fab F102 (VH H2, VL L91) (Fab, V domains shown, Soluble Fab-His) VH: QVQLVQSGAEVKKPGSSVKVSCKASGGTFSSYAISWVRQAPGQGLEWMGGIIPIFGTANYAQKFQGRVTITADESTSTAYMELSSLRSEDTAVYYCARDDLPLGRLDYWGQGTLVTVSS VL: EIVLTQSPATLSLSPGERATLSCRASQSVADWLAWYQQKPGQAPRLLIYKASNRATGIPARFSGSGSGTDFTLTISSLEPEDFAVYYCQQSFRWPLTFGQGTKVEIK
≥ 6 fold | 2.6e+06 relative chemiluminescence units | Fab F118 (VH H111, VL L104) (Fab, V domains shown, Soluble Fab-His; converted to mAb B11) VH: QVQLVQSGAEVKKPGSSVKVSCKASGGTFSSYGISWVRQAPGQGLEWMGGIIPIFGTANYAQKFQGRVTITADESTSTAYMELSSLRSEDTAVYYCARDDLPLGMLDYWGQGTLVTVSS VL: EIVLTQSPGTLSLSPGERATLSCRASQSVSSSYLAWYQQKPGQAPRLLIYGASSRATGIPDRFSGSGSGTDFTLTISRLEPEDFAVYYCQQYTAFPLTFGQGTKVEIK
≥ 6 fold | 1.6e+06 relative chemiluminescence units | Fab F93 (VH H86, VL L79) (Fab, V domains shown, Soluble Fab-His) VH: QVQLVQSGAEVKKPGSSVKVSCKASGGTFSSYAISWVRQAPGQGLEWMGGIIPIFGTANYAQKFQGRVTITADESTSTAYMELSSLRSEDTAVYYCARDTFWFTVFDYWGQGTLVTVSS VL: EIVLTQSPGTLSLSPGERATLSCRASQSVSSSYLAWYQQKPGQAPRLLIYGASSRATGIPDRFSGSGSGTDFTLTISRLEPEDFAVYYCQQSNTLPLTFGQGTKVEIK
≥ 6 fold | 1.2e+06 relative chemiluminescence units | Fab F133 (VH H134, VL L117) (Fab, V domains shown, Soluble Fab-His) VH: QVQLVQSGAEVKKPGSSVKVSCKASGGTFSSYAISWVRQAPGQGLEWMGGIIPIFGTANYAQKFQGRVTITADESTSTAYMELSSLRSEDTAVYYCARGADSNAVRLVGFDYWGQGTLVTVSS VL: EIVLTQSPGTLSLSPGERATLSCRASQSVAYSSLAWYQQKPGQAPRLLIYAASSRATGIPDRFSGSGSGTDFTLTISRLEPEDFAVYYCQQSNTPPLTFGQGTKVEIK
≥ 6 fold | 1.2e+06 relative chemiluminescence units | Fab F144 (VH H149, VL L122) (Fab, V domains shown, Soluble Fab-His) VH: QVQLVQSGAEVKKPGSSVKVSCKASGGTFSSYGISWVRQAPGQGLEWMGGIIPIFGTANYAQKFQGRVTITADESTSTAYMELSSLRSEDTAVYYCAREDVNYISTYSEFDYWGQGTLVTVSS VL: EIVLTQSPGTLSLSPGERATLSCRASQSVRKSGLAWYQQKPGQAPRLLIYNASSRATGIPDRFSGSGSGTDFTLTISRLEPEDFAVYYCQQATKPPLTFGQGTKVEIK
